The record followed here is article PMC8761697, “Dehydrogenase reductase 9 (SDR9C4) and related homologs recognize a broad spectrum of lipid mediator oxylipins as substrates” (The Journal of Biological Chemistry, 2021).

Common to all, as to assay: HPLC of oxidised product, Sf9 microsomes
Holding throughout (format): biochemical, Homo sapiens
Holding throughout (details): apparent Km, NAD+-dependent oxidation, 90 mM potassium phosphate pH 7.3, 40 mM KCl, 37 °C

Substrate in data set [1]: CCCCC/C=C\C=C\[C@@H](O)CCCCCCCC(=O)O
The text has this:
(§1) HPLC of oxidised product, Sf9 microsomes on human HSD17B6 (SDR9C6)

Substrate in data set [2]: CCCCC[C@H](O)/C=C/C=C\CCCCCCCC(=O)O
Text: as §1

Substrate in data set [3]: CCCCC/C=C\C[C@H](O)/C=C/C=C\C/C=C\CCCC(=O)O
Text: as §1

Substrate in data set [4]: CCCCC[C@H](O)/C=C/C=C\C/C=C\C/C=C\CCCC(=O)O
Text: as §1

Substrate in data set [5]: CCCCC/C=C\C=C\[C@@H](O)CCCCCCCC(=O)O
The text has this:
(§2) HPLC of oxidised product, Sf9 microsomes on human RDH16 (SDR9C8)
This is another data set of the same source.

Substrate in data set [6]: CCCCC[C@H](O)/C=C/C=C\CCCCCCCC(=O)O
Text: as §2
The source holds these as a separate data set.

Substrate in data set [7]: CCCCC/C=C\C[C@H](O)/C=C/C=C\C/C=C\CCCC(=O)O
Text: as §2
This is another data set of the same source.

Substrate in data set [8]: CCCCC[C@H](O)/C=C/C=C\C/C=C\C/C=C\CCCC(=O)O
Text: as §2
This is another data set of the same source.

Substrate in data set [9]: CC/C=C\C[C@H](O)/C=C/C=C\C=C\C=C\[C@@H](O)[C@@H](O)C/C=C\CCC(=O)O
The source says:
(§3) HPLC of oxidised product, Sf9 microsomes on human DHRS9 (SDR9C4)

Substrate in data set [10]: CCCCC/C=C\C=C\[C@@H](O)CCCCCCCC(=O)O
Text: as §3
The source holds these as a separate data set.

Substrate in data set [11]: CCCCC[C@H](O)/C=C/C=C\C=C\C=C\[C@@H](O)[C@@H](O)CCCC(=O)O
Text: as §3

Substrate in data set [12]: CCCCC[C@H](O)/C=C/C=C\CCCCCCCC(=O)O
Text: as §3
This is another data set of the same source.

Substrate in data set [13]: CCCCC/C=C\C[C@H](O)/C=C/C=C\C/C=C\CCCC(=O)O
Text: as §3
The source holds these as a separate data set.

Substrate in data set [14]: CCCCC[C@H](O)/C=C/C=C\C/C=C\C/C=C\CCCC(=O)O
Text: as §3
The source holds these as a separate data set.

Substrate in data set [15]: CCCCC/C=C\C[C@@H](O)/C=C/C=C/C=C\[C@@H](O)CCCC(=O)O
Text: as §3

For orientation: Km means the substrate concentration at which the rate is half of its maximum. What is called Vmax is the top rate of the reaction or transport when substrate is in excess.

B1: human HSD17B6 (SDR9C6) (Homo sapiens) (protein)
chain: YRERQVVSHLQDKYVFITGCDSGFGNLLARQLDARGLRVLAACLTEKGAEQLRGQTSDRLETVTLDVTKMESIAAATQWVKEHVGDRGLWGLVNNAGILTPITLCEWLNTEDSMNMLKVNLIGVIQVTLSMLPLVRRARGRIVNVSSILGRVAFFVGGYCVSKYGVEAFSDILRREIQHFGVKISIVEPGYFRTGMTNMTQSLERMKQSWKEAPKHIKETYGQQYFDALYNIMKEGLLNCSTNLNLVTDCMEHALTSVHPRTRYSAGWDAKFFFIPLSYLPTSLADYILTRSWPKPAQAV
notes: recombinant, baculovirus-infected Sf9 cell microsomes
B1: the Km in data set [1] was determined as 0.64 ± 0.28 µM; in [2], 0.33 ± 0.24 µM; in data set [3] it was 0.87 ± 0.35 µM; in data set [4], 1.78 ± 0.42 µM. Moreover, the Vmax in [1] came to 4e-07 µmol/min; in data set [2], 9e-07 µmol/min; in data set [3], 7.96e-06 µmol/min; in data set [4], 2.88e-06 µmol/min.

B2: human RDH16 (SDR9C8) (Homo sapiens) (protein)
chain: MWLYLAVFVGLYYLLHWYRERQVLSHLRDKYVFITGCDSGFGKLLARQLDARGLRVLAACLTEKGAEQLRGQTSDRLETVTLDVTKTESVAAAAQWVKECVRDKGLWGLVNNAGISLPTAPNELLTKQDFVTILDVNLLGVIDVTLSLLPLVRRARGRVVNVSSVMGRVSLFGGGYCISKYGVEAFSDSLRRELSYFGVKVAMIEPGYFKTAVTSKERFLKSFLEIWDRSSPEVKEAYGEKFVADYKKSAEQMEQKCTQDLSLVTNCMEHALIACHPRTRYSAGWDAKLLYLPMSYMPTFLVDAIMYWVSPSPAKAL
notes: as for B1
Turning to B2, the Km came out at 1.76 ± 0.59 µM in data set [5], 0.83 ± 0.36 µM in data set [6], 2.01 ± 0.64 µM in data set [7] and 1.39 ± 0.56 µM in data set [8]. In addition, the Vmax worked out at 1.67e-05 µmol/min in [5], 7.7e-06 µmol/min in data set [6], 2.15e-06 µmol/min in data set [7] and 2.04e-05 µmol/min in data set [8].

B3: human DHRS9 (SDR9C4) (Homo sapiens) (protein)
chain: RKGKLKIEDITDKYIFITGCDSGFGNLAARTFDKKGFHVIAACLTESGSTALKAETSERLRTVLLDVTDPENVKRTAQWVKNQVGEKGLWGLINNAGVPGVLAPTDWLTLEDYREPIEVNLFGLISVTLNMLPLVKKAQGRVINVSSVGGRLAIVGGGYTPSKYAVEGFNDSLRRDMKAFGVHVSCIEPGLFKTNLADPVKVIEKKLAIWEQLSPDIKQQYGEGYIEKSLDKLKGNKSYVNMDLSPVVECMDHALTSLFPKTHYAAGKDAKIFWIPLSHMPAALQDFLLLKQKAELANPKAV
notes: as for B1
Regarding B3, the Km came out at 1.6 ± 0.5 µM in data set [9]; 0.57 ± 0.25 µM in data set [10]; 4.6 ± 2.7 µM in [11]; 0.46 ± 0.19 µM in [12]; 0.43 ± 0.16 µM in [13]; 0.36 ± 0.18 µM in data set [14]. For the same protein, the Km in data set [15] was 0.76 ± 0.44 µM. In addition, the Vmax in data set [9] worked out at 8.5e-05 µmol/min; in data set [10], 2.4e-05 µmol/min; in [11] it was 0.00023 µmol/min; in data set [12], 0.00011 µmol/min; in data set [13], 0.00022 µmol/min; in [14], 0.00014 µmol/min. Besides, in data set [15], the Vmax turned out to be 0.00017 µmol/min.
